Holding throughout (type): biochemical
Series [1] concerns O=C(c1ccc(Cl)cc1)c1ccccn1. The series is described as follows: Kinetic analysis of alcohol dehydrogenase (CPMK reduction, NADPH absorption at 340 nm). To be noted: other: WT, substrate CPMK, pH 7.0, 30° C. On the procedure: (§1) Adopting a total reaction system of 200 μL, including: 1.0 mM NADPH, 1.0 mM substrate CPMK and sodium phosphate buffer (PBS, 100 mM, pH 7.0), fully and evenly mixing, maintaining at 30° C. for 2 min, adding an appropriate amount of enzyme solution, and detecting the change in light absorption at 340 nm.
(§2) The enzyme activity was calculated by the following formula: Enzyme activity (U)=EW×V×10^3/(6220×I);
(§3) in the formula, EW is the change in absorbance at 340 nm in 1 min; V is the volume of a reaction solution in mL; 6220 is the molar extinction coefficient of NADPH in L/mol·cm); and 1 is the optical path distance in cm. One activity unit (U) corresponds to the amount of enzyme required to catalyze the oxidation of 1 μmol NADPH per minute under the above conditions.
(§4) A column used for purification was a nickel affinity column HisTrap FF crude, and purification was achieved through affinity chromatography using a histidine tag on recombinant protein. The nickel column was equilibrated with a solution A first, a crude enzyme solution was loaded, a penetrating peak was further eluted off using the solution A, and after equilibrium, a solution B (20 mM sodium phosphate, 500 mM NaCl, and 1000 mM imidazole, pH 7.4) was used for gradient elution to elute off the recombinant protein bound to the nickel column, so as to obtain the recombinant alcohol dehydrogenase mutant. The purified protein was subjected to activity measurement (CPMK as substrate, and NADPH as coenzyme) and SDS-PAGE analysis. […] The purified alcohol dehydrogenase protein was then replaced into a Tris-HCl (100 mM, pH 7.0) buffer using a Hi Trap Desalting column (GE Healthcare).
(§5) The activity of KpADH at different substrate concentrations and coenzyme concentrations was determined, and a double reciprocal curve was made based on the reciprocal of activity and substrate concentration to calculate kinetic parameters.

Series [2] has as its target alcohol dehydrogenase KpADH, wild type (WT), SEQ ID No. 2 (Vanderwaltozyma polyspora, UniProt A7TM80). Described as above. On the set-up: unit not given here. On the procedure:
as §1, §2, §3, §4, §5

The target in series [3] is alcohol dehydrogenase KpADH (SEQ ID No. 2) mutant F320V/S237A (Vanderwaltozyma polyspora, UniProt A7TM80, form not given/S237A). The series is described as follows: Kinetic analysis of alcohol dehydrogenase mutant (CPMK reduction, NADPH absorption at 340 nm). The conditions noted are these: substrate CPMK, pH 7.0, 30° C. On the procedure: as §1, §2, §3, §4, §5
(§6) Two mutants of S237A and S237C valuable for modification of asymmetric synthesis R- and S- are obtained by random mutation screening, and the two sites are used as templates for random mutation. […] It can be known by combining the data in Tables 2 and 3 that the 214 site of alcohol dehydrogenase is a site that is important for determining selectivity improvement and inversion.

Series [4] addresses alcohol dehydrogenase KpADH (SEQ ID No. 2) mutant F320W/S237A (Vanderwaltozyma polyspora, UniProt A7TM80, form not given/S237A). The series is described as above. The conditions noted are these: substrate CPMK, pH 7.0, 30° C. On the procedure: as §1, §2, §3, §4, §5, §6
Series [5] concerns O=C(c1ccc(Cl)cc1)c1ccccn1. Described as above. To be noted: other: E214G/S237C, substrate CPMK, pH 7.0, 30° C.
Series [6] relates to O=C(c1ccc(Cl)cc1)c1ccccn1. The description is as above. To be noted: other: S237C, substrate CPMK, pH 7.0, 30° C. The procedure:
as §1, §2, §3, §4, §5, §6

The Vmax is the top rate of the reaction or transport when substrate is in excess. In general, kcat refers to the maximal rate divided by the concentration of active sites. A word on the kcat/Km: it is the second-order rate constant that governs catalysis at low substrate concentration. Regarding “alcohol dehydrogenase KpADH, wild type (WT), SEQ ID No. 2 (Vanderwaltozyma polyspora DSM 70294)”, in series [1], the Km was 760 ± 190 µM, the Vmax came out at 21.3 µM/min/mg, the kcat came out at 14.2 ± 1.16 s⁻¹ and the kcat/Km came to 18700 ± 620 M⁻¹ s⁻¹.

As to `O=C(c1ccc(Cl)cc1)c1ccccn1` [CPMK, (4-chlorophenyl)-(pyridin-2-yl)-methanone], the Km in series [2] amounted to 0.76; in series [3] it was 1150 ± 50 µM; in series [4], 1660 ± 20 µM. Also, the Kcat in series [3] was found to be 5.9 ± 0.09 s⁻¹; in series [4] it was 11.07 ± 0.25 s⁻¹. The Vmax in series [3] amounted to 8.9 ± 0.78 µM/min/mg; in series [4], 16.6 ± 0.37 µM/min/mg.

On to “alcohol dehydrogenase KpADH (SEQ ID No. 2) mutant M12, E214G/S237C (Vanderwaltozyma polyspora DSM 70294; E214G/S237C)”, for which, in series [5], the Km was 310 ± 20 µM, the Vmax was found to be 9.54 µM/min/mg, the kcat came to 6.3 ± 0.11 s⁻¹ and the kcat/Km was found to be 22100 ± 1370 M⁻¹ s⁻¹.

As for “alcohol dehydrogenase KpADH (SEQ ID No. 2) mutant S237C (Vanderwaltozyma polyspora DSM 70294; S237C)”, in series [6], the Km worked out at 1010 ± 100 µM, the Vmax was found to be 20.9 µM/min/mg, the kcat was 13.9 ± 0.99 s⁻¹ and the kcat/Km amounted to 13800 ± 250 M⁻¹ s⁻¹.

For the origin of these results see US11078465B2, “Alcohol dehydrogenase mutant and application thereof in synthesis of diaryl chiral alcohols” (Jiangnan University, priority 2018, dated 2021).
